We go through one molecule from publication PMC10499821.

This assay deals with Nsp3 ADRP (SARS-CoV-2) (UniProt P0DTD1). Kind of assay: fluorescence polarisation.

In turn, DGGTDGKAQLVVHSA [PARP10_(700–715)] yielded a Kd of 300 µM.
